Measurements published in patent US20160083465A1 (AVEO PHARMACEUTICALS, published 2016).
Changes are numbered by the printed parent chain.

T1: untagged recombinant human GDF15 (rhGDF15 (Peprotech)) (human, UniProt Q99988 197-308, limits assumed)
T1 construct: Bought from Peprotech
T1 sequence (looked up): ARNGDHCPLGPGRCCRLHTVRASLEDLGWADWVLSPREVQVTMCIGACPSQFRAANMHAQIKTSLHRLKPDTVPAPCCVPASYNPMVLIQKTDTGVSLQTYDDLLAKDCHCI

T2: 6xHis tagged recombinant human GDF15 (His-rhGDF15) (human, UniProt Q99988 197-308)
T2 construct: Bought from R&D Systems
T2 sequence: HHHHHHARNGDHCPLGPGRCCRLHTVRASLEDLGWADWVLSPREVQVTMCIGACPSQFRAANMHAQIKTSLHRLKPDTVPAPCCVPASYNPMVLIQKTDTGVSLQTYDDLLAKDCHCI

T3: mouse IgG1 Fc-mature human GDF15 fusion protein (mFc-rhGDF15) (mouse; human)
T3 construct: Made in CHOK1SV cells, purified by Protein A and size exclusion; also called mouse Fc fused to human GDF15
T3 chain: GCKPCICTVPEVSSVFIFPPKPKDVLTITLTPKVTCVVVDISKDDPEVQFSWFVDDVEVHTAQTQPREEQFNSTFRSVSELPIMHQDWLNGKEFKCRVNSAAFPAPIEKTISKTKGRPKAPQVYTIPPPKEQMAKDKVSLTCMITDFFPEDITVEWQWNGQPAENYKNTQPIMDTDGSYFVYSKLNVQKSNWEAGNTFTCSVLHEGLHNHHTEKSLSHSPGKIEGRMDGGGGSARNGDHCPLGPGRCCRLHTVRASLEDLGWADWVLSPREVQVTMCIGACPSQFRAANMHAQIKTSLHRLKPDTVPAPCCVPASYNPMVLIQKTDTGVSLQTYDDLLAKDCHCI

T4: cleaved-rhGDF15 (human, UniProt Q99988 197-308)
T4 sequence: T1 sequence (looked up)

B1: 01G06 (antibody, mouse IgG1, kappa)
heavy: EVLLQQSGPELVKPGASVKIPCKASGYTFTDYNMDWVKQSHGKSLEWIGQINPNNGGIFFNQKFKGKATLTVDKSSNTAFMEVRSLTSEDTAVYYCAREAITTVGAMDYWGQGTSVTVSSAKTTPPSVYPLAPGSAAQTNSMVTLGCLVKGYFPEPVTVTWNSGSLSSGVHTFPAVLQSDLYTLSSSVTVPSSTWPSETVTCNVAHPASSTKVDKKIVPRDCGCKPCICTVPEVSSVFIFPPKPKDVLTITLTPKVTCVVVDISKDDPEVQFSWFVDDVEVHTAQTQPREEQFNSTFRSVSELPIMHQDWLNGKEFKCRVNSAAFPAPIEKTISKTKGRPKAPQVYTIPPPKEQMAKDKVSLTCMITDFFPEDITVEWQWNGQPAENYKNTQPIMDTDGSYFVYSKLNVQKSNWEAGNTFTCSVLHEGLHNHHTEKSLSHSPGK
light: DIQMTQSPASLSASVGETVTITCRTSENLHNYLAWYQQKQGKSPQLLVYDAKTLADGVPSRFSGSGSGTQYSLKINSLQPEDFGSYYCQHFWSSPYTFGGGTKLEIKRADAAPTVSIFPPSSEQLTSGGASVVCFLNNFYPKDINVKWKIDGSERQNGVLNSWTDQDSKDSTYSMSSTLTLTKDEYERHNSYTCEATHKTSTSPIVKSFNRNEC
notes: Murine monoclonal from hybridoma, IgG1 kappa; also called antibody 01G06
B2: 06C11 (antibody, mouse IgG1, kappa)
heavy: QVTLKESGPGILQPSQTLSLTCSFSGFSLNTYGMGVSWIRQPSGKGLEWLAHIYWDDDKRYNPSLKSRLTISKDASNNRVFLKITSVDTADTATYYCAQRGYDDYWGYWGQGTLVTISAAKTTPPSVYPLAPGSAAQTNSMVTLGCLVKGYFPEPVTVTWNSGSLSSGVHTFPAVLQSDLYTLSSSVTVPSSTWPSETVTCNVAHPASSTKVDKKIVPRDCGCKPCICTVPEVSSVFIFPPKPKDVLTITLTPKVTCVVVDISKDDPEVQFSWFVDDVEVHTAQTQPREEQFNSTFRSVSELPIMHQDWLNGKEFKCRVNSAAFPAPIEKTISKTKGRPKAPQVYTIPPPKEQMAKDKVSLTCMITDFFPEDITVEWQWNGQPAENYKNTQPIMDTDGSYFVYSKLNVQKSNWEAGNTFTCSVLHEGLHNHHTEKSLSHSPGK
light: DIVMTQSQKFMSTSVGDRVSVTCKASQNVGTNVAWFQQKPGQSPKALIYSASYRYSGVPDRFTGSGSGTDFILTISNVQSEDLAEYFCQQYNNYPLTFGAGTKLELKRADAAPTVSIFPPSSEQLTSGGASVVCFLNNFYPKDINVKWKIDGSERQNGVLNSWTDQDSKDSTYSMSSTLTLTKDEYERHNSYTCEATHKTSTSPIVKSFNRNEC
notes: Murine monoclonal from hybridoma, IgG1 kappa; also called antibody 06C11
B3: 14F11 (antibody, mouse IgG1, kappa)
heavy: QVTLKESGPGILQPSQTLSLTCSFSGFSLSTYGMGVGWIRQPSGKGLEWLADIWWDDDKYYNPSLKSRLTISKDTSSNEVFLKIAIVDTADTATYYCARRGHYSAMDYWGQGTSVTVSSAKTTPPSVYPLAPGSAAQTNSMVTLGCLVKGYFPEPVTVTWNSGSLSSGVHTFPAVLQSDLYTLSSSVTVPSSTWPSETVTCNVAHPASSTKVDKKIVPRDCGCKPCICTVPEVSSVFIFPPKPKDVLTITLTPKVTCVVVDISKDDPEVQFSWFVDDVEVHTAQTQPREEQFNSTFRSVSELPIMHQDWLNGKEFKCRVNSAAFPAPIEKTISKTKGRPKAPQVYTIPPPKEQMAKDKVSLTCMITDFFPEDITVEWQWNGQPAENYKNTQPIMDTDGSYFVYSKLNVQKSNWEAGNTFTCSVLHEGLHNHHTEKSLSHSPGK
light: B2 light with F36Y, A51P, I72T, N93S, L96H, A100G, L106M
notes: Murine monoclonal from hybridoma, IgG1 kappa; also called antibody 14F11

target: T1, untagged recombinant human GDF15 …; assay: SPR Biacore T100, 37 C, antibody captured by anti-mouse IgG, antigen in solution
Protocol: (§1) Rabbit anti-mouse IgGs (GE Healthcare) were immobilized on carboxymethylated dextran CM4 sensor chips (GE Healthcare) by amine coupling, according to a standard protocol. Analyses were performed at 37° C. using PBS containing 0.05% surfactant P20 as running buffer. The antibodies were captured in individual flow cells at a flow rate of 10 μL/minute. Injection time was varied for each antibody to yield an Rmax between 30 and 60 RU. 250 μg/mL mouse Fc (Jackson ImmunoResearch, West Grove, Pa.) was injected at 30 μL/minute for 120 seconds to block non-specific binding of capture antibodies to mouse Fc portion of the recombinant GDF15 protein when needed. […] The dissociation phase was monitored for up to 1500 seconds. The surface was then regenerated with two 60-second injections of 10 mM Glycine-HCl, pH 1.7, at a flow rate of 30 μL/minute.
(§2) Kinetic parameters were determined using the kinetic function of the BIAevaluation software (GE Healthcare) with double reference subtraction.

Binder	Kd [nM]	koff [s⁻¹]	kon [M⁻¹ s⁻¹]
B1	0.093	0.0019	2.1e+07
B2	0.21	0.0046	2.2e+07
B3	0.071	0.0022	3.1e+07

target: T2, 6xHis tagged recombinant human GDF15 …; assay: as above
Protocol: as §1, §2

Binder	Kd [nM]	koff [s⁻¹]	kon [M⁻¹ s⁻¹]
B1	0.081	0.0011	1.4e+07
B2	0.051	0.0015	2.9e+07
B3	0.096	0.00042	4.4e+06

Target: T3, mouse IgG1 Fc-mature human GDF15 fusion …
Assay: as above
Protocol: as §1, §2

Binder	Kd [nM]	koff [s⁻¹]	kon [M⁻¹ s⁻¹]
B1	0.21	0.0007	5.6e+06
B2	0.17	0.00068	4.5e+06
B3	0.22	0.00033	1.7e+06

target: T4, cleaved-rhGDF15; assay: as above
Protocol: as §1, §2

Binder	Kd [nM]	koff [s⁻¹]	kon [M⁻¹ s⁻¹]
B1	0.11	0.00086	7.5e+06
B2	0.17	0.002	1.2e+07
B3	0.11	0.0006	5.7e+06
